Reference: the supplement of paper PMC12042874
± gives the uncertainty stated by the source.

Test: amyloid nucleation score (Sup35N fusion, yeast selection) (log enrichment); library NNK1; higher = more nucleation; inactive = no reads after selection
In short: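 Peptides of 20 random codons, each fused to Sup35N, were expressed in psi-negative yeast. Cells were induced with 100 μM copper sulfate for 24 hours and grown 7 days at 30°C on medium lacking adenine and uracil, and plasmid inserts before and after selection were Illumina-sequenced. Nucleation scores are DiMSum log enrichments of output over input reads, centred on the mode score of non-aggregating sequences, and sequences under 100 input reads were excluded.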

Substance	amyloid nucleation score
CCVDGLLLIERHVSLQYHSA	0.135 ± 0.63
ILCIESLSGFPWLICIENSL	0.135 ± 0.39
AYCVAHTYCMSGMRYIADWV	0.421 ± 0.31
VGHSEIKMTMTRLADLGVCE	0.612 ± 0.62
VFGVPVTCGGRPVFLIKVVG	-0.794 ± 1.4
GTNFS	0.498 ± 0.97
KKDSTYSRSRLDPFRLSVSV	-0.14 ± 0.5
GKTRK	-0.782 ± 1.7
CFNVYWLFAIGGYGMRLRSD	-1.04 ± 1.1
TAWHLSMNALGNSSLDFKGR	1.51 ± 0.16
LNSKILGKSRTCDENSWPFV	-0.27 ± 0.51
TSCFGVWRHVLSRHSFRTSV	4.17 ± 0.13
DSFQGRS	0.255 ± 0.47
LTLICSSGEC	2.14 ± 0.17
QYVPNETVDI	1.4 ± 0.25
HLIDVTILGWDEVSIM	1.26 ± 0.37
SGEDVSGCQDLFALVPMGQG	0.495 ± 0.51
PYVSHCGIHFFGWFSWSRAS	0.583 ± 0.46
VRRQFVPKSYLCCESYFNEV	0.32 ± 0.56
QGLAGHLSRRYFY	-1.96 ± 2.1
CRCSSQLRYMHGRFWFDRSV	0.084 ± 0.62
RCSLPLWFQYYGAMTVHGTV	0.61 ± 0.35
RFDSFAMVYDNMWVRCLNVR	-0.303 ± 0.53
KMLVSDTNGESSPLL	0.124 ± 0.39

Substance	amyloid nucleation score
YMVSCYLAGNQDSVVCSVKW	2.23 ± 0.18
GESCLDSRFRNDDNR	0.09 ± 0.33
GVDGYDLRGLSWEVAKEFKS	0.73 ± 0.67
GRSLY	-0.413 ± 0.46
IGSFGNRYRVPMRTASGYNM	0.623 ± 1
YIDSLISLITDSCMNHRDGR	-0.29 ± 1.1
YDLTSFGFSVIVCSDDTRSG	-0.043 ± 0.75
FYASQRSTPHAVFLCNALKV	0.304 ± 0.52
RRKESYYGSSTYVSTNYAL	-0.075 ± 0.68
KISCIISWLYDFIIKLAFFT	-0.931 ± 0.68
EIMKCFNFTHMVEMKSMKRN	2.62 ± 0.087
NLTDTKLRDNGKNPALADQV	-0.226 ± 0.26
WVYMANRVEYRRASRNMS	inactive
SLPFVTS	-0.319 ± 0.71
YFTLFDSRKTVLRSENNTRW	0.578 ± 0.32
RCLIDCD	0.157 ± 0.52
CSTFRVDFFSPCFLL	6.006 ± 0.05
TMFLVSRDFRGIVLYWITTF	-0.364 ± 0.78
KNFDHVKDHIVFQVL	-1.27 ± 1
LSTDQLVSSLKCR	0.404 ± 0.41
IFCYMNYGS	0.554 ± 0.51
AYSERTSGTMTRVWWDLRSR	-0.795 ± 1.1
RGRPLLGRMRFSSAGRAAFW	-0.418 ± 1.5
TLIWSCARHWV	1.44 ± 0.22

Substance	amyloid nucleation score
PDAFKSLLLERRAWIKFVSK	1.15 ± 0.7
SGFAVLKIVMAFHLTLEHQF	0.479 ± 0.67
GVYSGVVSRSL	-0.21 ± 0.34
WAVGVRSQLWVARQAKVMGG	0.741 ± 0.69
TVNHFGLEPCVTKIMGLY	0.213 ± 0.74
RRNVM	0.519 ± 0.25
SFLRGMASWLTQMHGKGWGW	0.239 ± 0.69
VFYVFWYFRLCI	0.035 ± 0.2
FLNVARQV	0.101 ± 1.4
MEKYYGQLLKDY	0.224 ± 0.29
TSFVSETGFTWVCVFLVAGT	0.616 ± 1.1
NNCAFYSLRWRKLWLGGMHV	8.364 ± 0.056
VFGSCWYLYFVYLPTNRFRM	-0.134 ± 0.3
STVTTAYNDMSLIWQAARVL	0.436 ± 0.57
VLRTGVH	1.25 ± 0.66
ETSSPLLEGG	0.554 ± 0.55
STTLQERVYSAPATDLRDWA	0.246 ± 0.37
SACALSYYCGWISRCSYLCP	-0.158 ± 0.63
MLLIVPLFDSEVVWPGVVWT	-0.235 ± 0.66
SLIRIVSS	0.372 ± 0.52
NDVPLLWVISASCG	1.02 ± 0.44
MWFRTAST	6.339 ± 0.047
ISWYGFAT	inactive
LGASGLGCIF	4.56 ± 0.055
